The results in this text go back to PMC6198510 (2018).

As a reminder, the Kd is the concentration at which binding is half-saturated. A higher Kd goes with weaker binding.

The target of assay [1] is JK18. Put plainly: FP.
Assay [2] concerns the target JK16. Briefly: FP.
In assay [3] the target is JK18. Briefly: FP; direct titration.
Assay [4] has as its target JK16. Briefly: FP; direct titration.

B1: c-Jun N-terminal kinase 3 (enzyme)
chain: MSLHFLYYCSEPTLDVKIAFCQGFDKQVDVSYIAKHYNMSKSKVDNQFYSVEVGDSTFTVLKRYQNLKPIGSGAQGIVCAAYDAVLDRNVAIKKLSRPFQNQTHAKRAYRELVLMKCVNHKNIISLLNVFTPQKTLEEFQDVYLVMELMDANLCQVIQMELDHERMSYLLYQMLCGIKHLHSAGIIHRDLKPSNIVVKSDCTLKILDFGLARTAGTSFMMTPYVVTRYYRAPEVILGMGYKENVDIWSVGCIMGEMVRHKILFPGRDYIDQWNKVIEQLGTPCPEFMKKLQPTVRNYVENRPKYAGLTFPKLFPDSLFPADSEHNKLKASQARDLLSKMLVIDPAKRISVDDALQHPYINVWYDPAEVEAPPPQIYDKQLDEREHTIEEWKELIYKEVMNSEEKTKNGVVKGQPSPSGAAVNSSESLPPSSSVNDISSMSTDQTLASDTDSSLEASAGPLGCCR
B1: the Kd with JK18 [1] is 4.1 µM; with JK16 [2], 6.7 µM; in the assay with JK18 [3], 4.1 µM; with JK16 [4], 6.7 µM.
